Blank lines part the entries; values can stand above or below the binder they belong to.
Tests used:
[1] = target: T1, iAPOL1-G0 in podocytes (EIK variant, doxycycline-inducible, in APOL1 KO podocytes) (human, UniProt O14791 29-398); experiment: immunoelectron microscopy, iAPOL1-G0 podocytes, 25 µg/ml
T1 construct: Stably re-expressed untagged APOL1 isoform A in APOL1 KO clone 89401-3; also called iAPOL1-G0 podocytes; iAPOL1 podocytes
T1 chain: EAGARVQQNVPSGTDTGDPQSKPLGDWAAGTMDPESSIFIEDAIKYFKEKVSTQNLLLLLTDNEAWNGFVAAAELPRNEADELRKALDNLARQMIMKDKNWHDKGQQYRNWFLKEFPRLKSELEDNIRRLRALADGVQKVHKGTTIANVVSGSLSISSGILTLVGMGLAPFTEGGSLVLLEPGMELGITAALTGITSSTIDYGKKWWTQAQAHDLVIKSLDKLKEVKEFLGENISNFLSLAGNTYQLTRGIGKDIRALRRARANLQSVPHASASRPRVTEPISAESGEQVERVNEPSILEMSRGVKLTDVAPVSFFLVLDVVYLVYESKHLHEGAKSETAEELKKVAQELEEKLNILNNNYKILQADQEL

[2] = target: T2, circulating APOL1 in normal human serum (human, UniProt O14791 28-398); experiment: cell-based or functional assay
T2 sequence (looked up): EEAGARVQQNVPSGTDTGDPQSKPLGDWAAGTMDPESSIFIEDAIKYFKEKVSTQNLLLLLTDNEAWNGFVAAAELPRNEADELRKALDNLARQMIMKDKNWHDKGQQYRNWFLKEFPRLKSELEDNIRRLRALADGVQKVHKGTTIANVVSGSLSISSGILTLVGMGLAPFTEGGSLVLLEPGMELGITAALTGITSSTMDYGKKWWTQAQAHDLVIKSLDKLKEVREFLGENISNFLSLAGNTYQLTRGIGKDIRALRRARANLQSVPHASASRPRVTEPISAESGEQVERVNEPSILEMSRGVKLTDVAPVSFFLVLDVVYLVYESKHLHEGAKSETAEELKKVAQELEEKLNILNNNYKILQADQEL

binding result [1]: binds
B1: rabbit monoclonal antibody 5.17D12 (antibody, V domains shown)
VH: QSLEESGGDLVKPGASLTLTCTASGFSFSSNYYMCWVRQAPGKGLEWIACVYVGSGGSTYYASWAKGRFTFSKTSSTTWTLQMTSLTAADTATYFCARDLSYAGDLWGPGTLVTVSS
VL: DPVMTQTPASVSEPVGGTVTINCQASESISSYLAWYQQKPGQPPKLLIYGASNLASGVPSRFKGSGSGTEYTLTISDLECDDAATYYCQSAYYSNSGGHAFGGGTEVVVKG
notes: Rabbit mAb (Method #5), recombinant; also called rabmab 5.17D12

IC50 of blocking of serum APOL1-mediated trypanolysis (Alamar Blue) [2]: 0.5 nM
B2: antibody 3.7D6 (antibody, V domains shown)
VH: QIQLVQSGPDLKKPGETVKISCRTSGYAFTNYGVNWVKQAPGKGLKWMGWINTNTGQTTYAEEFRGRFAISLETSASTAFLTISNLKNEDSATYFCARLIYDGDYISSDFWGQGTTLTVSS
VL: DIQMTQSPDSLSASVGETVTITCGASENIYGALNWYQRKQGKSPQLLIYGATNLADGMSSRFSGSRSGRQYSLKISSLHPDDVATYYCQNALSMPYTFGGGTKLEIKR
notes: Mouse mAb, cloned as murine IgG2a LALAPG; those versions are not written separately; also called PFD antibody 3.7D6

— patent publication US20230071609A1 (Genentech, published 2023)
